From patent US20190169232A1 (FEINSTEIN INSTITUTES FOR MEDICAL RESEARCH, published 2019) come the findings set out here.

Test [1] has as its target T1, Human recombinant RAGE (hrRAGE), soluble RAGE (human, UniProt Q15109 24-344, limits assumed).
T1 construct: Called soluble RAGE (sRAGE) in the SPR and bead experiments; also called sRAGE; Receptor for Advanced Glycation Endproducts
The test is described as follows: SPR (data not shown).

For another test, the target named is T2, RAGE on human monocytes (human, UniProt Q15109 23-404).
T2 construct: whole, on cells
T2 sequence (Q15109 23-404): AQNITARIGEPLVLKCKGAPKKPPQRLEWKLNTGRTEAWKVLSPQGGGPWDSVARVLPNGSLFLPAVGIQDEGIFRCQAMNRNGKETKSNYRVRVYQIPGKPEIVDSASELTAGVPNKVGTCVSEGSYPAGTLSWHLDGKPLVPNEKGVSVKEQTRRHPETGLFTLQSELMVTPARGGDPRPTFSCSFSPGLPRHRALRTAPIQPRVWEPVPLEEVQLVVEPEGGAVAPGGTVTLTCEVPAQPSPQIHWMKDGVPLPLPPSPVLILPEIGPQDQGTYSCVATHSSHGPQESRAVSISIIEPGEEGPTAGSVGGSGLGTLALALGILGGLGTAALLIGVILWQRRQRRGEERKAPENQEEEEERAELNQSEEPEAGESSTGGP
The test is described as follows: proximity ligation assay on human monocytes, condition without C1q.

Test [2] concerns the target T3, C1q purified from pooled normal human sera (human, UniProt P02746 28-253; P02747 29-245).
T3 construct: mature; Bought from Complement Technology, purified from serum; It names no B or C chains; Biotinylated for the bead assay; also called human C1q; first component of complement
Put plainly: SPR kinetics, C1q immobilised on a CM5 chip, HMGB1 redox form as analyte in a concentration series, 1:1 fit. The procedure:
A 1:1 mixture of N-hyrdoxysuccinimide and N-ethyl-N-(dimethyaminopropyl) carbodiimide was used to activate 2 flow-cells of the CM5 chip. […] The analyte (HMGB1) was diluted in 1× HBS-N+0.05% tween-20 buffer (filtered—0.22 um). Three redox states of HMGB1 were sequentially injected at a flow rate of 20 μl/min for 60 s at 25° C., the dissociation time was set for 3 minutes. […]
For orientation: SPR reads the build-up and loss of mass on a sensor chip optically.

The target of test [3] is T3, C1q purified from pooled normal human …. Put plainly: SPR (BIAcore T200), HMGB1 immobilized on a CM5 chip, C1q as analyte at 5 concentrations, 1:1 fit. The procedure:
Surface Plasmon Resonance analysis (SPR): For real-time binding interaction studies, a BIAcore T200 instrument (GE Healthcare) was used. […] A 1:1 mixture of N-hydroxysuccinimide and N-ethyl-N-(dimethyaminopropyl) carbodiimide was used to activate 2 flow-cells of the CM5 chip. […] The analytes were diluted in 1× PBS+0.01% (vol/vol) tween-20 buffer. The analytes were sequentially injected at a flow rate of 30 μl/min for 60 s at 25° C. The KD was determined using the BIAcore evaluation software 2.0 (GE Healthcare) supposing a 1:1 binding ratio.

T3 sequence (P02746 28-253, chain 2 of 2): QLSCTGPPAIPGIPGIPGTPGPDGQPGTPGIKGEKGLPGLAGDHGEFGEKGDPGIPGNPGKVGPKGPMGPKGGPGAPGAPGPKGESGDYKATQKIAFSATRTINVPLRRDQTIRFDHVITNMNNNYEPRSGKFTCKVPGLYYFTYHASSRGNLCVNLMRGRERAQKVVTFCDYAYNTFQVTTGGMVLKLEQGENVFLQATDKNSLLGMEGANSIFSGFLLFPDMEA
T3 sequence (P02747 29-245, chain 3 of 2): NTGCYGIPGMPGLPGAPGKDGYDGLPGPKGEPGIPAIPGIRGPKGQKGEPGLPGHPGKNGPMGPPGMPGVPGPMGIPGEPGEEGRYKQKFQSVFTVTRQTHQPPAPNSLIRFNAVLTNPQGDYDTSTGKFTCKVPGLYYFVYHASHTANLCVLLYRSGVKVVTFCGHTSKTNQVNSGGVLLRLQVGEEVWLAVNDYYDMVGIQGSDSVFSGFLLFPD
T1 sequence (Q15109 24-344 limits assumed): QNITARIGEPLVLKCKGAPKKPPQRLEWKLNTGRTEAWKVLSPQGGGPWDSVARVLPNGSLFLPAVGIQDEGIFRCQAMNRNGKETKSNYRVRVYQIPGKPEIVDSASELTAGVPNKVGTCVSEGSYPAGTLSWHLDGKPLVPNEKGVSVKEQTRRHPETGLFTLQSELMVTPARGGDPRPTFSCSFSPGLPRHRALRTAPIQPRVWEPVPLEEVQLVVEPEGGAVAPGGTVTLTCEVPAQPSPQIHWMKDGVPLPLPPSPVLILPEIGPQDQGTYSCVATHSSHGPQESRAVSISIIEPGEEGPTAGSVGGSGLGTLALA

B1: C1q tail (C1q collagen-like tail) purified from whole C1q (other)
chain 1: EDLCRAPDGKKGEAGRPGRRGRPGLKGEQGEPGAPGIRTGIQGLKGDQGEPGPSGNPGKVGYPGPSGPLGARGIPGIKGTKGSPGNI
chain 2: not shown
chain 3: not shown
notes: domain: collagen-like tail; Fragment prepared from whole serum C1q 'as previous described (22)'; also called C1q collagen tail
In the case of B1, the binding result in test [1] is given as “no binding”.

B2: LAIR-1 on human monocytes (receptor, UniProt Q6GTX8 22-287, looked up)
chain: QEEDLPRPSISAEPGTVIPLGSHVTFVCRGPVGVQTFRLERDSRSTYNDTEDVSQASPSESEARFRIDSVREGNAGLYRCIYYKPPKWSEQSDYLELLVKESSGGPDSPDTEPGSSAGPTQRPSDNSHNEHAPASQGLKAEHLYILIGVSVVFLFCLLLLVLFCLHRQNQIKQGPPRSKDEEQKPQQRPDLAVDVLERTADKATVNGLPEKDRETDTSALAAGSSQEVTYAQLDHWALTQRTARAVSPQSTKPMAESITYAAVARH
notes: whole, on cells; also called Leukocyte-Associated Ig-like Receptor 1; CD305
For the molecule B2, the binding result with RAGE on human monocytes was “no binding”.

B3: Disulfide HMGB1 (ligand, UniProt P09429 1-215, looked up)
chain: MGKGDPKKPRGKMSSYAFFVQTCREEHKKKHPDASVNFSEFSKKCSERWKTMSAKEKGKFEDMAKADKARYEREMKTYIPPKGETKKKFKDPNAPKRPPSAFFLFCSEYRPKIKGEHPGLSIGDVAKKLGEMWNNTAADDKQPYEKKAAKLKEKYEKDIAAYRAKGKPDAAKKGVVKAEKSKKKKEEEEDEEDEEDEEEEEDEEDEDEEEDDDDE
modifications: disulfide bond between C23 and C45, with a free cysteine at C106
notes: also called disulfide form of HMGB1
Molecule B3 returned a Kd in test [2] of 210 nM. That is a sub-micromolar value.

B4: All-thiol HMGB1 (ligand, not shown: small tags and cut ends)
chain: B3 chain
modifications: All-thiol form: C23, C45 and C106 all stand as free reduced thiols, with no C23-C45 disulfide. The letters are unchanged.
notes: Analyte in the SPR assays on immobilised C1q; also called reduced HMGB1
B4 registered a Kd in test [2] of 1060 nM.

B5: Recombinant HMGB1 (Calmodulin Binding Protein Epitope, Cbp tagged) (ligand, human, UniProt P09429 1-215, looked up, not shown: small tags and cut ends)
chain: B3 chain
notes: also called High Mobility Group Box 1
Regarding B5, the affinity in test [3], expressed as Kd, was 200 nM. This lies in the sub-micromolar range.

As a reminder, the Kd is the concentration at which binding is half-saturated. A higher Kd goes with weaker binding.
